From the nanobody polyreactivity screen of Harvey et al. (2022)

Test: yeast display, Sf9 membrane polyspecificity reagent, FACS + sequencing; frameworks hold sequencing errors
Method in brief: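 Galactose induction of a Saccharomyces cerevisiae BJ5465 synthetic nanobody display library ran 36–48 hours. The cells were then stained for 1 hour at 4 °C with 10% biotinylated, detergent-solubilized Sf9 membrane reagent, pulled down on streptavidin microbeads and FACS-sorted into low and high (top ~1%) gates on expression and reagent-binding fluorescence. Labels for polyreactivity follow the gate of origin.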

Sequence | polyreactivity (PSR sort gate)
QVQLVESGGGLVQAGGSLRLSCAASGRTFPYYVMGWYRQAPGKERELVAAISTTGGSTYYADSVKGRFTISRDNAKNTVYLQMNSLKPEDTAVYYCAARRLIRDNLGYDYWGQGTQVTVSS | high polyreactivity
QVQLVESGGGLVQAGGSLRLSCAASGRIFTFNAMGWYRQAPGKERELVAAGSTYYADSVKGRFTISRDNAKNTVYLQMNSLKPEDTAVYYCAVEDLGSEGWGWYKEMDYWGQGTQVTVSS | low polyreactivity
QVQLVESGGGLFQEGGSLRLSCAASGSIFSYYAMGWYRQAPGKERELVAAISTYGGRTYYADSVKGRFTISRDNAKNTVYLQMNSLKPEDTAVYYCAGPVRWKNYDYWGQGTPVTVSS | high polyreactivity
QVQLVESVGGIVQAGGSLRLSCDASGRTFGRSAMGSYRQAPGKERELVAGISRAGDSTHYAESVKGRCTISRDNAKNTVYLQMNSLKPEDTAVYYCNKETPTIGARKYEYWGQGTQVTVSS | low polyreactivity
QVQLVESGGGLVQAGGSLRLSCAASGSTFGRYAMGWYRQAPGKERELVAAISESDGSTYYADSVKGRFTISRDNAKNTVYLQMNSLKPEDTAVYYCAAEWTHYWWYQYDYWGQGTQVTVSS | high polyreactivity
QVQLEESGGGLFQAGGSLRLICAATGSIFRVYVMGWYIQAPGKERELVAAITSSDGTTYYADSVKGRFTISRDNAKNTVYLQMNSLKPEDTALYYCNAEFYSPPVVGPRYWYPGFYWGQGTQVTVSS | low polyreactivity
QFQLVESCGGLVQAGGTLRLSCAASGFIFDIYERGWYRQAPGKERELVAAITWNSGSTHYADSVKGRFTISRDNAKKTVYLQMNSLNPDDTAVYYCAAVEVTYAYYPYDYCGQGTQVTVSS | low polyreactivity
QFQLVESGGGLVQAGGSLRLSCAASGFIFSTYTMGWYRQAPGKERELVAAISSGGGTYYADSVKGRFTISRDNAKNTVYLQMNSLKPEDTAVYYCAALVYSSYPAGWYDYWGQGTQVTVSS | high polyreactivity
QVQLVESGGGLVQAGGSLRLSCAASGIIFREYAMGWYRQAPGKERELVAAISKSGGSTYYADSVKGRFTISRDNAKNTVYLQMNSLKPEDTAVYYCAARLGTFSIPMYYWGQGTQVTVSS | high polyreactivity
QVQLVESGGGLVQAGGSLRLSCAASGRIFRYYAMGWYRQAPGKERELDAAISRSGGSTYYADSVKGRFTISRDNAKNTVYLQMNSLKPEDTAVYYCAARVYRYGAMDYWGQGTQVTVSS | high polyreactivity
QVQLVETGGGLDQAGGSLRLSCAASGFTLHRNAKGWYRQAPRKERELVATNSWTGGSTYYADSVKGRFTISRDTAKNTVYLQMNSLKPEDTAVYYCAARGHWSIYGYYYLGATAFGYWGQGTQVTVSS | low polyreactivity
QVQLVESGGGLVQAGGSLRLSCAASGRIFPSNTMGWYRQAPGKERELVADISFGGGSTYYADSVKGRFTISRDNAKNTVYLQMNSLKPEDTAVYYCNADFGFGYVSLLYEYWGQGTQVTVSS | low polyreactivity
QVQLVESGGGLVQAGGSLRLSCAASGIIFWFYAMGWYRQAPGKERELVAAISGDGDSTYYADSVKGRFTISRDNAKNTVYLQMNSLKPEDTAVYYCAAEWDPVFATDEDDYWGQGTQVTVSS | low polyreactivity
QDQHVESGGCLVQAGGSRRLSCAASGSILGAYTMGCYRQAQGKERELVAAITRRGGSTYYADSVKGRFTISRDNAKNTVYLQMNSLKPEDTAVYYWNAEYGVWYDYLVVPYDYWGQGTQVTVSS | low polyreactivity
QVQLEESGGGLVQAGCSLRLSCAASGSTFVRYAMGWYRQAPGKERELVAAISWSGASTYYADSVKGRFTISRDNAKNTVYLQMNSLKPEDTAVYYCAARSRWYDAAGYQKYYYWGQGSQVTVSS | high polyreactivity
QVQLGESGGGLVQAGGSLRLTCAASGIIFPYYAMGWYRQATGKERELVAGISSSGGITYADSVKGRFTISRDNGKNTVYLQMNSLKPEDTAVYYCNAEYQWLEYDYCGQGTQVTVSS | low polyreactivity
QVQLVESGGGLVQAGGSLRLSCAASGITFRPYTMGWYRQAPGKERELVATINWSGGSTYYADSVKGRFTISRDNAKNTVYLQMNSLKPEDTAVYYCAVTWYVRRWYGYWGQGTQVTVSS | high polyreactivity
HVQLQESGRRPGAAGGSPRMSCAASGNIYWVAVMGRYRQAPGEERELVASIGFGCTTYYADSVKCRFTISRDNAKNTVYLQMISLKPEDTAVYYCAAPHYDWGELDYWGQGTQVPVSS | low polyreactivity
QVQLVESGGGLVPAGGSLRLSCAGSGFIFYKYAMGWYRQAPGKERELVAAITRGGSTNYADSVKGRFTSSRDKAKNTVYLQMNSLKPEDTAVYYCAAGNRYGVRQLYQIVTRYYWGQGTQVTVSS | high polyreactivity
QVQLLETGGGLVQAGGSLRLSCAPSGSIFDSYAMGWYRQAPGKERELVATINTSGGSTYYADSVKGRFTIHDNAKNTVYLQMNSLKPEDTAVYYCNAGRWDYWQNNFGDYGYWGQGTQVTVSS | low polyreactivity
QVQLVESGGGLVQAGGRLRLSCAASGSTFILNAMGWYRQAPGKERELVAAISRSGGNTYYADSVKRRFTISRDNAKNTVYLQMNSLKPADTAVYYCAATRRSHYYYWGQGTQVTVSS | high polyreactivity
QVQLVESGGGLVQAGGSLRLSCAASGFIFSYNAMGWYRQAPGSERELVAAITRRTASTYYADSVKGRFTISRDNAKNTVYFQMNSLKPEDTAVYYCAADSSLKRPYYAGYYYWGQGTQVTVSS | high polyreactivity

Sequence | polyreactivity (PSR sort gate)
QVQLVESGGGLVQAGGSLRLSCAASGFIFAWNDMGWYRQAPGKERELVAAISSGTSTNYADSVKGRFTISRDNAKNTVYLQMNSLKPEDTGVYYCNVDSPLQPYRYYYWGQGSQVTVSS | low polyreactivity
QVQLVESGGGLVQAGGSLRLICAASGNTFKDYTMVWYIQAPRKERDLVASINSGGSTNYADSVKGRFTISRDNAKNTVYLQMNSLKPEDTAVYYCAKRAWSDYNPIDYWGQGTQVSVSS | low polyreactivity
QVQLVESGGGLVQAGGSLRLSCAASGRTLYFNAMGWYRQAPGKERALVADISIGGSTYSADSVKGRFTISRDNAKNTVYLQMNSLKPEDSAVYYCAANAHYYVSYAWSVDVDYWGQGTQVTVSS | high polyreactivity
QVQLVESGGGLVQAGGSLRLSCAASGITFLEYAMGWYRQAPGKERELVATINSGGSTNYADSVKGRFTISRDNAKNTVYLQMNSLKPVDTAVYYCAADYGSDYTKGDYWGQGTQVTVSS | low polyreactivity
QVQLVESVGGLVQAGGSLRLSCAASGRIFPWYAKGWYRQAPGKERELVAAIRWRGGGTYYADSVKGRFTISRDNAKNTVYLQMNSLKPEDTAVYYCAARRPAKGMGYWGQGTQVTVSS | high polyreactivity
QDQLVESGGGLVQAGGSLRLSCAASGSIFVENDMGWYRQAPGKERELVAVITSGGSTYYADSVKGRFTISRDNAKNTVYLQMNSLKPEDTAVYYCNKDYAAIDRYDSWGQGTQVTVSS | low polyreactivity
QVQLVESGGGLVQAGGSLRLSCAASGSTFGPYTMGWKRPAPGKERELVATISSGGSTYYADSVKGRFTISRDNAKNTVYLQLNCLKPEDTAVYSCAKDFWYRSYDYWGQGTQVTLSS | low polyreactivity
QVQLVESGGGLVQAGGSLRLSCAASGYIFSYYAMGWNRPAPGKERELVATISSGGSTNYADSVKGRFTISRDNAKNTVYLQMNSLKPEDTAVYYCAATIGHNGFYYWGQGTLVTVSS | low polyreactivity
QVQLVESVGGLVQAGGSLRLSCAASGSTLYPYAMGWYRQAPGKERELVAVITLRGGSTYYADSVKGRFTISRDNAKNTVYLQMNSLKPEDTAVYYCAARKRPFYKYDYWGQGTQVTVSS | high polyreactivity
QVQLVESGGGLVQAGGSLRLSCAASGSTFDSNDMGWSRQAPGKERELVAAITWSGGSTYYADSVKGRFTISRDNAKNTVYLQMNSLKPEDTAVYYCAATSGRAFKYDYWGQGTQVTVSS | high polyreactivity
QVQLVESGGGLVQAGGILRLSCAASGRIFGGNAMGWYRQSPGKEREFVAAITWRGGTTYYADSVKGRFTISRDNAKNTVYLQMNSLKPEDTAVYYCNAMPYTRNTGYDYWGQGTQVTVSS | high polyreactivity
QVQLVESGGGLVQAGGSLRLSCAASGFTFNRYAMGWYRQAPGKERELVAAITRRGGSTYYADSVKGRFTISRDNAKNTVYLQMNSLKPEYSAVYYCNVDFQAYGIPMDYWGQGTQVTVSS | high polyreactivity
QVHLVETGGGLVQAGGSLRLSCAASGSIFVSNAKGWYRQAPGKERELVAAISQSGGSTYYADSVKGRFTISRDYAKNTVYLQMNSLKPEDTAVYYCATPIRSGFRIYDYWGQGTQVTVSS | low polyreactivity
QVQLVESGRGLVQAGGSLRLSCAASGIFTRYAMGWYRQAPGKERELVAAISRGGGSTYYADSVKGSFTISRDNAKNTVYLQMNSLKPEDTAVYYCAADNSPRPYDYWGQGTQVTVSS | high polyreactivity
QVQLVESGGGLVQAGGSLRLSCAASGFTIRYYALGWYRQAPGKERELVAAISRGGSTTYADSVKGRFTISRDNAKNTVYLQMNSLKPEDTAVDYCAVYSKWSVTYDYWGQGTQVTVSS | high polyreactivity
QVQLVESGGGLVQAGGSLRLSCAASGRIFNLYDMGWYRQAPGKERELVAAIRIGDRTYYADSVKGRFTISRDNEKNTVYLQMNSLKQEDTAVYYCNREYLSNRDKRFFYWGQGTQVTVSS | low polyreactivity
QVQLVESGGGLVQAGGSLRLSCAASGGTFYHYAMGLYRQAPGKERALGAAIRSGARTNYADSVKGRFTISRDNAKNTVYLQMNSLYPEDTAAYSCAAARVRGYVRSGLDYWGQGTQVTVSS | high polyreactivity
QVQLVESGGGLVQAGGSLRLSCAASGRIFFANAMGWYRQAPGKERELVAAISYSGTSTYYADSVKGRFTISRDNAKNSVYLQMNSLKPEDTAVYYCNAGRYIKMGDWGQGTQVTVSS | high polyreactivity
QVQLVESGGGLVQAGGSLRLSCAASGSTFVKYAMGWYRQAPGKERELVATITRRGGNTYYADSVKGRFTISRDNAKYTVYLQMNSLKPEDTAVYYCAKYSRTKAFEYWGQGTQVTVSS | high polyreactivity
QVHLVESGRGLLQAGGSLRLSCAPSGRTFGVYSMGWYSQAPGKERELVAAISWSGDRTYYADSVKGRFTISRDYAKNTVYLQMNSLKPEDPALDYAEYHGAKYDYWGQGTQVTVSS | high polyreactivity
QVQLEESGGGLVQAGGSLRLSCAASGFILSGNTMGWYRPAPGKERELVAGITYTGGSTYYADSVKGRFTISRDNAKNTVYLQMNSLKPEDTAVYYCAVDVAGGEGMDYWGHGTQVTVSS | low polyreactivity
